Measurements taken from publication PMC10540216, “Activity Guided Azide-methyllysine Photo-trapping for Substrate Profiling of Lysine Demethylases” (Journal of the American Chemical Society, 2023).

B1: NOLC1_HUMAN (protein, UniProt Q14978 1-699, looked up)
Nucleolar and coiled-body …: MADAGIRRVVPSDLYPLVLGFLRDNQLSEVANKFAKATGATQQDANASSLLDIYSFWLKSAKVPERKLQANGPVAKKAKKKASSSDSEDSSEEEEEVQGPPAKKAAVPAKRVGLPPGKAAAKASESSSSEESSDDDDEEDQKKQPVQKGVKPQAKAAKAPPKKAKSSDSDSDSSSEDEPPKNQKPKITPVTVKAQTKAPPKPARAAPKIANGKAASSSSSSSSSSSSDDSEEEKAAATPKKTVPKKQVVAKAPVKAATTPTRKSSSSEDSSSDEEEEQKKPMKNKPGPYSSVPPPSAPPPKKSLGTQPPKKAVEKQQPVESSEDSSDESDSSSEEEKKPPTKAVVSKATTKPPPAKKAAESSSDSSDSDSSEDDEAPSKPAGTTKNSSNKPAVTTKSPAVKPAAAPKQPVGGGQKLLTRKADSSSSEEESSSSEEEKTKKMVATTKPKATAKAALSLPAKQAPQGSRDSSSDSDSSSSEEEEEKTSKSAVKKKPQKVAGGAAPSKPASAKKGKAESSNSSSSDDSSEEEEEKLKGKGSPRPQAPKANGTSALTAQNGKAAKNSEEEEEEKKKAAVVVSKSGSLKKRKQNEAAKEAETPQAKKIKLQTPNTFPKRKKGEKRASSPFRRVREEEIEVDSRVADNSFDAKRGAAGDWGERANQVLKFTKGKSFRHEKTKKKRGSYRGGSISVQVNSIKFDSE
B2: MCM5_HUMAN (protein, UniProt P33992 2-734, looked up)
DNA replication licensing …: SGFDDPGIFYSDSFGGDAQADEGQARKSQLQRRFKEFLRQYRVGTDRTGFTFKYRDELKRHYNLGEYWIEVEMEDLASFDEDLADYLYKQPAEHLQLLEEAAKEVADEVTRPRPSGEEVLQDIQVMLKSDASPSSIRSLKSDMMSHLVKIPGIIIAASAVRAKATRISIQCRSCRNTLTNIAMRPGLEGYALPRKCNTDQAGRPKCPLDPYFIMPDKCKCVDFQTLKLQELPDAVPHGEMPRHMQLYCDRYLCDKVVPGNRVTIMGIYSIKKFGLTTSRGRDRVGVGIRSSYIRVLGIQVDTDGSGRSFAGAVSPQEEEEFRRLAALPNVYEVISKSIAPSIFGGTDMKKAIACLLFGGSRKRLPDGLTRRGDINLLMLGDPGTAKSQLLKFVEKCSPIGVYTSGKGSSAAGLTASVMRDPSSRNFIMEGGAMVLADGGVVCIDEFDKMREDDRVAIHEAMEQQTISIAKAGITTTLNSRCSVLAAANSVFGRWDETKGEDNIDFMPTILSRFDMIFIVKDEHNEERDVMLAKHVITLHVSALTQTQAVEGEIDLAKLKKFIAYCRVKCGPRLSAEAAEKLKNRYIIMRSGARQHERDSDRRSSIPITVRQLEAIVRIAEALSKMKLQPFATEADVEEALRLFQVSTLDAALSGTLSGVEGFTSQEDQEMLSRIEKQLKRRFAIGSQVSEHSIIKDFTKQKYPEHAIHKVLQLMLRRGEIQHRMQRKVLYRLK
B3: DDX5_HUMAN (protein, UniProt P17844 1-614, looked up)
Probable ATP-dependent RNA …: MSGYSSDRDRGRDRGFGAPRFGGSRAGPLSGKKFGNPGEKLVKKKWNLDELPKFEKNFYQEHPDLARRTAQEVETYRRSKEITVRGHNCPKPVLNFYEANFPANVMDVIARQNFTEPTAIQAQGWPVALSGLDMVGVAQTGSGKTLSYLLPAIVHINHQPFLERGDGPICLVLAPTRELAQQVQQVAAEYCRACRLKSTCIYGGAPKGPQIRDLERGVEICIATPGRLIDFLECGKTNLRRTTYLVLDEADRMLDMGFEPQIRKIVDQIRPDRQTLMWSATWPKEVRQLAEDFLKDYIHINIGALELSANHNILQIVDVCHDVEKDEKLIRLMEEIMSEKENKTIVFVETKRRCDELTRKMRRDGWPAMGIHGDKSQQERDWVLNEFKHGKAPILIATDVASRGLDVEDVKFVINYDYPNSSEDYIHRIGRTARSTKTGTAYTFFTPNNIKQVSDLISVLREANQAINPKLLQLVEDRGSGRSRGRGGMKDDRRDRYSAGKRGGFNTFRDRENYDRGYSSLLKRDFGAKTQNGVYSAANYTNGSFGSNFVSAGIQTSFRTGNPTGTYQNGYDSTQQYGSNVPNMHNGMNQQAYAYPATAAAPMIGYPMPTGYSQ
B4: NU160_HUMAN (protein, UniProt Q12769 1-1436, looked up)
Nuclear pore complex protein …: MLHLSAAPPAPPPEVTATARPCLCSVGRRGDGGKMAAAGALERSFVELSGAERERPRHFREFTVCSIGTANAVAGAVKYSESAGGFYYVESGKLFSVTRNRFIHWKTSGDTLELMEESLDINLLNNAIRLKFQNCSVLPGGVYVSETQNRVIILMLTNQTVHRLLLPHPSRMYRSELVVDSQMQSIFTDIGKVDFTDPCNYQLIPAVPGISPNSTASTAWLSSDGEALFALPCASGGIFVLKLPPYDIPGMVSVVELKQSSVMQRLLTGWMPTAIRGDQSPSDRPLSLAVHCVEHDAFIFALCQDHKLRMWSYKEQMCLMVADMLEYVPVKKDLRLTAGTGHKLRLAYSPTMGLYLGIYMHAPKRGQFCIFQLVSTESNRYSLDHISSLFTSQETLIDFALTSTDIWALWHDAENQTVVKYINFEHNVAGQWNPVFMQPLPEEEIVIRDDQDPREMYLQSLFTPGQFTNEALCKALQIFCRGTERNLDLSWSELKKEVTLAVENELQGSVTEYEFSQEEFRNLQQEFWCKFYACCLQYQEALSHPLALHLNPHTNMVCLLKKGYLSFLIPSSLVDHLYLLPYENLLTEDETTISDDVDIARDVICLIKCLRLIEESVTVDMSVIMEMSCYNLQSPEKAAEQILEDMITIDVENVMEDICSKLQEIRNPIHAIGLLIREMDYETEVEMEKGFNPAQPLNIRMNLTQLYGSNTAGYIVCRGVHKIASTRFLICRDLLILQQLLMRLGDAVIWGTGQLFQAQQDLLHRTAPLLLSYYLIKWGSECLATDVPLDTLESNLQHLSVLELTDSGALMANRFVSSPQTIVELFFQEVARKHIISHLFSQPKAPLSQTGLNWPEMITAITSYLLQLLWPSNPGCLFLECLMGNCQYVQLQDYIQLLHPWCQVNVGSCRFMLGRCYLVTGEGQKALECFCQAASEVGKEEFLDRLIRSEDGEIVSTPRLQYYDKVLRLLDVIGLPELVIQLATSAITEAGDDWKSQATLRTCIFKHHLDLGHNSQAYEALTQIPDSSRQLDCLRQLVVVLCERSQLQDLVEFPYVNLHNEVVGIIESRARAVDLMTHNYYELLYAFHIYRHNYRKAGTVMFEYGMRLGREVRTLRGLEKQGNCYLAALNCLRLIRPEYAWIVQPVSGAVYDRPGASPKRNHDGECTAAPTNRQIEILELEDLEKECSLARIRLTLAQHDPSAVAVAGSSSAEEMVTLLVQAGLFDTAISLCQTFKLPLTPVFEGLAFKCIKLQFGGEAAQAEAWAWLAANQLSSVITTKESSATDEAWRLLSTYLERYKVQNNLYHHCVINKLLSHGVPLPNWLINSYKKVDAAELLRLYLNYDLLEEAVDLVSEYVDAVLGKGHQYFGIEFPLSATAPMVWLPYSSIDQLLQALGENSANSHNIALSQKILDKLEDYQQKVDKATRDLLYRRTL
B5: MCM6_HUMAN (protein, UniProt Q14566 1-821, looked up)
DNA replication licensing …: MDLAAAAEPGAGSQHLEVRDEVAEKCQKLFLDFLEEFQSSDGEIKYLQLAEELIRPERNTLVVSFVDLEQFNQQLSTTIQEEFYRVYPYLCRALKTFVKDRKEIPLAKDFYVAFQDLPTRHKIRELTSSRIGLLTRISGQVVRTHPVHPELVSGTFLCLDCQTVIRDVEQQFKYTQPNICRNPVCANRRRFLLDTNKSRFVDFQKVRIQETQAELPRGSIPRSLEVILRAEAVESAQAGDKCDFTGTLIVVPDVSKLSTPGARAETNSRVSGVDGYETEGIRGLRALGVRDLSYRLVFLACCVAPTNPRFGGKELRDEEQTAESIKNQMTVKEWEKVFEMSQDKNLYHNLCTSLFPTIHGNDEVKRGVLLMLFGGVPKTTGEGTSLRGDINVCIVGDPSTAKSQFLKHVEEFSPRAVYTSGKASSAAGLTAAVVRDEESHEFVIEAGALMLADNGVCCIDEFDKMDVRDQVAIHEAMEQQTISITKAGVKATLNARTSILAAANPISGHYDRSKSLKQNINLSAPIMSRFDLFFILVDECNEVTDYAIARRIVDLHSRIEESIDRVYSLDDIRRYLLFARQFKPKISKESEDFIVEQYKHLRQRDGSGVTKSSWRITVRQLESMIRLSEAMARMHCCDEVQPKHVKEAFRLLNKSIIRVETPDVNLDQEEEIQMEVDEGAGGINGHADSPAPVNGINGYNEDINQESAPKASLRLGFSEYCRISNLIVLHLRKVEEEEDESALKRSELVNWYLKEIESEIDSEEELINKKRIIEKVIHRLTHYDHVLIELTQAGLKGSTEGSESYEEDPYLVVNPNYLLED
B6: MCCA_HUMAN (protein, UniProt Q96RQ3 42-725, looked up)
Methylcrotonoyl-CoA …: TTATGRNITKVLIANRGEIACRVMRTAKKLGVQTVAVYSEADRNSMHVDMADEAYSIGPAPSQQSYLSMEKIIQVAKTSAAQAIHPGCGFLSENMEFAELCKQEGIIFIGPPPSAIRDMGIKSTSKSIMAAAGVPVVEGYHGEDQSDQCLKEHARRIGYPVMIKAVRGGGGKGMRIVRSEQEFQEQLESARREAKKSFNDDAMLIEKFVDTPRHVEVQVFGDHHGNAVYLFERDCSVQRRHQKIIEEAPAPGIKSEVRKKLGEAAVRAAKAVNYVGAGTVEFIMDSKHNFCFMEMNTRLQVEHPVTEMITGTDLVEWQLRIAAGEKIPLSQEEITLQGHAFEARIYAEDPSNNFMPVAGPLVHLSTPRADPSTRIETGVRQGDEVSVHYDPMIAKLVVWAADRQAALTKLRYSLRQYNIVGLHTNIDFLLNLSGHPEFEAGNVHTDFIPQHHKQLLLSRKAAAKESLCQAALGLILKEKAMTDTFTLQAHDQFSPFSSSSGRRLNISYTRNMTLKDGKNNVAIAVTYNHDGSYSMQIEDKTFQVLGNLYSEGDCTYLKCSVNGVASKAKLIILENTIYLFSKEGSIEIDIPVPKYLSSVSSQETQGGPLAPMTGTIEKVFVKAGDKVKAGDSLMVMIAMKMEHTIKSPKDGTVKKVFYREGAQANRHTPLVEFEEEESDKRESE
B7: CAPR1_HUMAN (protein, UniProt Q14444 2-709, looked up)
Caprin-1: PSATSHSGSGSKSSGPPPPSGSSGSEAAAGAGAAAPASQHPATGTGAVQTEAMKQILGVIDKKLRNLEKKKGKLDDYQERMNKGERLNQDQLDAVSKYQEVTNNLEFAKELQRSFMALSQDIQKTIKKTARREQLMREEAEQKRLKTVLELQYVLDKLGDDEVRTDLKQGLNGVPILSEEELSLLDEFYKLVDPERDMSLRLNEQYEHASIHLWDLLEGKEKPVCGTTYKVLKEIVERVFQSNYFDSTHNHQNGLCEEEEAASAPAVEDQVPEAEPEPAEEYTEQSEVESTEYVNRQFMAETQFTSGEKEQVDEWTVETVEVVNSLQQQPQAASPSVPEPHSLTPVAQADPLVRRQRVQDLMAQMQGPYNFIQDSMLDFENQTLDPAIVSAQPMNPTQNMDMPQLVCPPVHSESRLAQPNQVPVQPEATQVPLVSSTSEGYTASQPLYQPSHATEQRPQKEPIDQIQATISLNTDQTTASSSLPAASQPQVFQAGTSKPLHSSGINVNAAPFQSMQTVFNMNAPVPPVNEPETLKQQNQYQASYNQSFSSQPHQVEQTELQQEQLQTVVGTYHGSPDQSHQVTGNHQQPPQQNTGFPRSNQPYYNSRGVSRGGSRGARGLMNGYRGPANGFRGGYDGYRPSFSNTPNSGYTQSQFSAPRDYSGYQRDGYQQNFKRGSGQSGPRGAPRGRGGPPRPNRGMPQMNTQQVN

Test system: KDM4A-I71AzF
Assay: CASI: photo-crosslinking with HEK293T cell extracts, StrepTactin enrichment and LC-MS/MS proteomics;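 also: lysates from HEK293T cells pretreated with a KDM4 inhibitor to raise proteome methylation, affinity-purified after ±UV, gel-resolved, trypsin-digested, with exclusive unique peptides per protein averaged per condition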
Format: binding, human
Details: sheet "Final results but with 0.01"

Molecule | Fold change (+UV/-UV)
B1 | 1
B2 | 0.9167
B3 | 1.6
B4 | 0.5
B5 | 0.75
B6 | 0
B7 | 0.5
